Assay results: patent US20170131281A1

How the values were obtained:
[1] = target: HL60 cells surface antigens; test: flow cytometry on HL60 cells, sandwich with anti-c-myc-FITC
[2] = target: KG1 cells surface antigen (6B protein binding surface antigen, unidentified); test: flow cytometry on KG1 cells, sandwich with anti-c-myc-FITC

FITC+: % Vis [1]: 4.5%
FITC+: GeoMean [1]: 9.8
FITC+: mean [1]: 10.7
FITC+: median [1]: 8.9
FITC+: % Vis [2]: 100%
FITC+: GeoMean [2]: 28.1
FITC+: mean [2]: 29.4
FITC+: median [2]: 28.4
B1: 6B antibody in an scFv format (Clone 6B) (scFv, not shown: small tags and cut ends)
scFv: EVQLLESGGGLVQPGGSLRLSCAASGFTFSSYGMSWVRQAPGKGLEWVSTIRTAGRATEYADSVKGRFTISRDNSKNTLYLQMNSLRAEDTAVYYCAKSPQTFDYWGQGTLVTVSSGGGGSGGGGSGGGGSTDIQMTQSPSSLSASVGDRVTITCRASQSISSYLNWYQQKPGKAPKLLIYRASRLQSGVPSRFSGSGSGTDFTLTISSLQPEDFATYYCQQRLTIPITFGQGTKVEIKRAAA
